test: soluble on expression in E. coli; label from the status in PepcDB or PDB records

Row | Sequence | soluble on expression in E. coli
1 | MGSDKIHHHHHHMTAIANRYEFVLLFDVENGNPNGDPDAGNMPRIDPETGHGLVTDVCLKRKIRNHVALTKEGAERFNIYIQEKAILNETHERAYTACDLKPEPKKLPKKVEDAKRVTDWMCTNFYDIRTFGAVMTTEVNCGQVRGPVQMAFARSVEPVVPQEVSITRMAVTTKAEAEKQQGDNRTMGRKHIVPYGLYVAHGFISAPLAEKTGFSDEDLTLFWDALVNMFEHDRSAARGLMSSRKLIVFKHQNRLGNAPAHKLFDLVKVSRAEGSSGPARSFADYAVTVGQAPEGVEVKEML | not soluble
2 | MGSDKIHHHHHHMTAIQHIERLARGRSEQAVAVIKNVQQMSNIPMHEMQLALKQLLNCGRIALHFHPDRIDSRGMTVAEGLLRDGQYRSQFETHISNGQLSPELGGPRDHWENQLFGDVYKGTKSRPKYGALDLGMWQDGPAPRFGSCYLLTHASVMARSTFCYLDSYRNPKEKGTLSCFDDVLAALLTESFERHYALGKSDFKPLNVIHYLGHQLNASLLSRFERPLSNNLDHYIEAQIHGDVSLDEDIAMLVADPSFKGTDIGASLSKICDRYDIELQYHDGFSLHTAQIPSDFRGPTMPSQANRIAIEDRVDAYAIGVAARDLYHSPQHWRDRGNRAQVAHELKLLWHVLVKYGAVQ | not soluble
3 | MGSDKIHHHHHHMTAQRPNRLINESSPYLLQHARNPVDWHPWGEEAFALARSEDKPVFLSIGYSTCHWCHVMAHESFEDEAVAALLNEAFINVKVDREDRPDIDSIYMAACQMLTGSGGWPLTIVMTPDGRPFFAATYIPRLSRGGRTGMLELVPRIRDIWRKQRADVTASADSVAEHMRRHAEGLLRPSSGGAPDDTTVRQAVDTLCQRYDARHGGFGSAPKFPAPHSLLLLLRHAHRTQDAARRAQLTGMVSHTLEAMRLGGIFDHAGYGFHRYSTDKEWLLPHFEKMLYDQAMHVLAYTRGWQLTGRPLFRRTAEEIMMYVMRDLTSPQGAFYAAEDADSDAPPHFAAMGLPHRGEGFFYLFTLQEIRGLLSREDALLAEKIWNLQEEGN | not soluble
4 | MGSDKIHHHHHHMTARTSALAIEIDRQDRSPIYLQICERFRTAIAAGHLRPGDRVPALRGLALQLNTARGTVEMAYTILVDEGYLQMRGAAGTFVSASLPASVTRPARGGDREQPPAREQGATKSSHALRGRQPATRQLAIAVAMSGEPKLLQPGLPALDAFPRKLWNRLVSRCARSGERAMLAYPDPVGYRALREHIATYLGLSRGVACVPEQVFITAGYRATLELVLRSLASPNDRMWFEDPGYLLARGFLAEVGVNLVPVPIDSEGIDVDRGIALDPLARFALVTPSHQAPLGYTLSLARRMALLDWAAKGSSWIIEDDYDSEFRYVGRPLPALKSLDKDDRVIYCGTFSKVMFPGLRLAYAVVPERAVERVERVACSMNAGSPTLLQAAVADFIEQGHFARHVKRMRALYGQRRTLIAHALEQAFGERMLVELPHGGIQFAVQFAEGPDGPVDDVAVAARARDAGLAVVPLSIWYANGRTRRTPRGLVMGFANVTDAREALRLARTLYGCLTG | not soluble
5 | MGSDKIHHHHHHMTDCADAQGLIAKITGVCFNHQLNIIKNSEFVDNAQGRFFMRTELEGHFHCEQLLQDLRQVLPAQNHMTLVSAGKKRIVILVTKEAHCLGDLLMKAYYGGLNVEIAAVVGNHDVLRELVEKFDIPFHLVSHEGLDRIQHEQALLAAVSQYSPDYLVLAKYMRVLTPDFVAEYPNRILNIHHSFLPAFIGAAPYRQAWERGVKIIGATAHFVNNCLDEGPIIKQDVIPVDHSYSALEMAKAGRDVEKSVLSKALQLVLNEQVVVYGNKTIVF | not soluble
6 | MGSDKIHHHHHHMTDKLLKQHKRLLEQQHKLPYTINLSGEVFTIIIYTKLSKVAGVTVLNSQEEPATVKEAEAVVNRIQKYNFYFEYLGKRAHVIKERDSIIAEKIEQTQLILNDNTIFGEKMQPTIDELNLAMEVYKQQQRKMDVYQEDITLLNQKIKMQGEILEEDWESAENLSIAFAKAAYAQSIYLEATRKNRKQLAKWFHLHQKELPTDKQKALSKMVSVLSDTNAGLVFDQIISLRPLLEEGLMLDHEQSLTQRAAEFNKEFETHCRFYKPNINKVKNLIRQ | not soluble
7 | MGSDKIHHHHHHMTDLGLYRHLDQMAPWNDRLQVLEVIGVSDEAPDVKTFTFRSDNQTWFRYKPGQFVTLELPTPDGPLMRTYTLSSSPSRPFSIAVTVKAQAGSIGTRWMFDHLVPGSHVKAYGPSGDFSLHSHPAAKYLFISAGSGVTPMMSMLRWLNDCAPWTDVGFVNCARRPEEIIFRKELELLGGHMPGLSLGFMIEERSSREGWYGHMGRIDAIRLPLLAPDFREREIFCCGPDPFMRAVRGMLEAAGFDMTKYHQESFAAPAVEEVPAPFVSPGEDGVTVPVEATPIRFALSVVDAECVAGQTVLQTARASGVRIPAACEFGLCGTCKVKKVSGAVEMSHNGGILDHEIDDGFILACCSKPLSALEIEA | not soluble
8 | MGSDKIHHHHHHMTEATYNFAYLDEQTKRMIRRAILKGIAIPGYQVPFASREMPMPYGWGTGGVQVTASILGPDDTLKVIDQGSDDTTNAISIRKFFAKTAGVATTTATPDASVIQTRHRIPETPLHEGQVLVYQVPIPEPLRYLEPRETETRRMHALAEYGLMHVKLYEDIAKFGHIATAYAYPVKVAGRYVMDPSPTPKFDNPKMDNCPALQLFGAGREKRIYAIPPYTQVVSLDFEDHPFTRYRQDGCCALCGADDSYLDEIVTDNAGTRMFVCSDTDYCEGRRAQGHTGSETAPMESAHA | not soluble
9 | MGSDKIHHHHHHMTENEFLSQEEIDKLLSDSDTGGVLTPEEKDMIGEIGNIAMGSAATTLSMILGRDIHITVPTVREEKMKNVKSDFSGEQVVVSVEYTEGLEGLNVLVLDKKLVAVIADLMMGGSGEVETEELDEIKLSAVGEAMNQMMGSAATSLSELLGITINISPPKVEILNFDDPNTQFPPVTDNPEKDVAVVEFEMEIEGLPKSKFYQVISADLVKKMYEYFTKKQSEAAEKKEKKEEKKVKVEPVEFAELKPSETRKTEVPSDKLELLLDIPLKVTVELGRTRMTLKRVLEMIPGSIIELDKLTGEPVDILVNGKLIARGEVVVIDENFGVRITEIVSPKERLELLNE | not soluble
10 | MGSDKIHHHHHHMTETLLVTGAAGQLGRGVIRYLMDTHKVPPAKIIATTRNPENVADLAARGVVVRAADFNDATSLENAFKGADRVLIISTSDLDLKTGRRLKQHEAAVAAAKKAGVSHLLYTSMPNPEPVSPVLFAGDHYGTEQAIKASGIAYTIFRNGWYQENLFIALPHAIASGQWYTSAGDGRIAHGSRDDMAAAIAAGLASGSTDSKTYTLTGPQAYTTAEIAALVSEVTGKPLEVIQLPDEALTEGVKAAGVPEEFARVIVSFDANTRSGRIAMATDAVETLSGRKPRTLKQFLEANKAALAG | not soluble
11 | MGSDKIHHHHHHMTFGLLHRWLTDMGMTISKNTLRNWLTKDKTYLDELVCVLKSIALEKDSIVNCDETWCKVRKYDHYKKCYIGVLVNKARKTAIFFYENGSCGRDVLTDFLGDAELKSIMSDGYNAYVFIGNELKLGRFKDTVHQVCMSHAKNKFVKASNQGGEPTAERFSEILKEFFMRDREYDDAGLTPKERFQERQSLETKELLIELRSLLDSEQSKDSEFRSRYYKEALNYLNRFRKEIFAYLDDGELPIDNNLAERTIRKLTTQRNNSLHYGSDAGAEMAATYHSVIGTVKLLGSSIWNFIGTFFKNIFNGCRDYVNMVPDKITLATSQC | not soluble
12 | MGSDKIHHHHHHMTGLTEDLFGELLPPASPPQACVAGGGAPSPDKASRGKSVLPARPDPAIDALARRLPPNLYLGTSSWSYNGWNGLVYDGEYSDNLLSRKGLAAYSRHPLLRAAGIDRGFYGPIPLADYLSYAAQVPEQFRFLVKAPASVCDAWLRGSDGVGRLANAAFLDAEIAIRDFITPATSGLGAKCGPLLFQLSPLGSLANDAAAFLDRLDGFLSALPPLDPSITPHACYAVEMRDPVLLTPRYIKLLRRYGVRFCLSARDRLPPVHRQASAQALMDAEAPGPLVLRWMLHAGRPYEVAESIYAPFNRLVDEDPETRDAIADLVVRTLNAGQSATVIISNKAEGSAPLTCIRLAEAIAARL | not soluble
13 | MGSDKIHHHHHHMTHEFVTILHTNDLHSHVEHWPRIANWIKTRRAQLQAAGHFVLTFDVGDFIDRYDANTQATWGKANVELLNDCTFDGVTIGNNEGLGLPRDRMEDIYSERRFAVLLANIFENDHGLPKWAEEYRVFVTPKGTRISAFGLTAAYDLTYPLLDWLPAQPVETLEKLSDRVIAQSDIRILLSHLGLPTDQSLARRFKEISVILGAHTHHLLPKGQMVENTLLAAAGKYGENVGEVDLEIDEKHQVVSERAHTIKFDNLPEVESASAFLENWRESGRNILENQIISNLPTDRSTLQQIDDCADALMEKFQTKIAMISSGMFLDELPAGQLNAFQLLKDLPHTIHPMKIDILGSDLLKLFDEINLQHDHLLNQHINGSGFRGDKFGEIKFYGLHEKQVDPKQHYEIASLDHYYFLPWFHSLQSADVSFDFKNILRELTAGYYREKYSHQEAV | not soluble
14 | MGSDKIHHHHHHMTHQNSPLFLKSALRLYNRASFKASHKVIEEYSTSFSLSTWLLSPRIRNDIRNLYAVVRIADEIVDGTAHAAGCSTAKIEEILDAYEIAVLAAPQQRFNTDLVLQAYGETARRCDFEQEHVIAFFASMRKDLKANTHDPDSFTTYVYGSAEVIGLLCLSVFNQGRTISKKRLEIMQNGARSLGAAFQKINFLRDLAEDQQNLGRFYFPKTSQGTLTKEQKEDLIADIRQDLAIAHDAFPEIPVQARIGVISAYLLFQKLTDRIEATPTADLLRERIRVPLHIKLSTLARATMKGLSMSIYRKNS | not soluble
15 | MGSDKIHHHHHHMTHRITILCDNTVGPVSGTLGEHGFAALVEWEGGSLLFDTGMGETLLRNAQRLGRNLAAVPRVVISHGHYDHGGGLWPLLRTCGSKTVLAHPGIFAPRYRVKDTGDPLSIGIPFDEAFLRGQGAHFDFNDRFREVGPGLYLTGEVPRTTAFETGDTGLFCDEAGCRPDPISDDQSLVIRTERGLVLLLGCCHAGVVNTARWALECTGETVVHTVIGGTHLGFCGREQLDETVKSLRELGVHKLVGSHCTGFAAAARLMHEFPGRFHPSAVGYTLEV | not soluble
16 | MGSDKIHHHHHHMTIHKLKEKVASTDFEQHSYAFRRFVLDELRVYIPFAAACFTTIDPESLLSTGTVMDKQLEPIHTLILENEHTGSDYNHYFQLVDSSPHIATLHDATGGNLTASQRYTRILAPAGFHDELRAALIDQGKCWGHLTLFHSKHHSPFSREEQQLVNSLLPAITKKVKRLTFQSTFSPSPNSSHFEAAIMIFSDTFELLSANEAAHSLLSLLREQEQLGEGTFPRPIETLCVKIKATSSSKEEGEIDRWSVCIPAANGQLLTLYASKLTSELLPEQYAVISQNTSPFERLGYSLLYYGLTQREIQIVEQIVNGYTTKQISSHLYISTHTVQDHLKSIFAKMNVNSRRELLSFLNQANK | not soluble
17 | MGSDKIHHHHHHMTINFNRIYVIQSLSKANGDELTGQQLFDDVLQYFNTKYGDKDARIFNVDNKKELLHALENIKSHCETDGIKPIIHFEIHGLEDKTGLSLNQEDVNWGDIYVKFIEINAASKWNLFITMGVCFGNYSMLLIRPSLPAPFTGILGSFEELFEWDLYIRYNAFYQELLNSLDFEKALEALHDSNPALPDDYRYINSEQTFKNVYQKYFDTQFSDVKIKERFNLTIAEEKISFTNRNIKRQFYSKFRTNLLNTKKEFFIKDKRKFFMFDVFPGHQYIYCVNWEPNYH | not soluble
18 | MGSDKIHHHHHHMTISIPDTLTTDNSEKYIVSIRLRSGGLSFSGYDPSAGGSFFYRETEFDRAVSFISSLKEFFFAHEFLTWTYKRINVICVSPEYSLVPDNYWGDGKEGRLLDFSFSTLELHCLTDTLKEQQAKLVFGVDEEVYEFCSRSLLHPFFSHYMTSLLTLWTKESSASLPRQMYVVIERKRMDVACYAQGKLLFVNSYPIDQSDDIVYYILYVWKQAGLDQEKDQLLLAGESSSRMRVLERLRAYLRHVKPVEIPSEAYLLGTDVTKAPMDLISLLICE | not soluble

From the DeepSol protein solubility set
